In patent publication US20160281104A1 (KOREA ATOMIC ENERGY RESEARCH INSTITUTE, published 2016):

Target: the molecule itself
Assay: size exclusion chromatography (Superdex 200) and native PAGE; self-association

B1: alkyl hydroperoxide reductase subunit F (AhpF) protein of Pseudomonas aeruginosa (enzyme)
chain: MLDANLKTQLKAYLEKVSQPFEIVASLDDSDKSRELLGLLQDIVGLTDKITLKTDGSDARKPSFSLNRPGADIGLRFAGIPMGHEFTSLVLALLQVGGHPSKLDADVIEQVKGIEGTFEFETYFSLSCQNCPDVVQALNLMAVLNPNIRHVAIDGALFQDEVEARQIMSVPSIYLNGEVFGQGRMGVEEILAKIDTGAAARDAEKLTARDAFDVLVVGGGPAGAAAAIYAARKGIRTGVAAERFGGQVLDTMAIENFISVQETEGPKLARALEEHVRHYEVDIMNLQRASKLVPAKNAGELHEVRFESGGSLKAKTLILATGARWREMGVPGEQEYKAKGVCFCPHCDGPLFKGKRVAVIGGGNSGVEAAIDLAGIVAHVTLLEFDSKLRADAVLQRKLYSLPNVEVITSALTSEVKGDGQKVTGLVYKDRNSEEFKSIELEGIFVQIGLLPNTEWLKGSVELSPRGEIIVDARGETSLPGIFAAGDVTTVPYKQIVIAVGEGAKASLSAFDHLIRTSAPE
notes: Recombinant protein cloned from P. aeruginosa PAO1 genomic DNA and expressed from pET28a in E. coli BL21(DE3); It was purified on Ni-NTA and released from the resin with thrombin, so the His tag was cleaved; also called PaAhpF; AhpF(PA)
- binding result: binds
